Experiment [1] deals with LFA-1 disulfide mutant #2 (αL E1061C / β2 G676C) on 293T cells (UniProt P20701). Briefly: flow cytometry (FACS), LFA-1 on transfected 293T cells.
The target in experiment [2] is LFA-1 disulfide mutant #9 (αL M1064C / β2 N678C) on 293T cells (UniProt P20701). The description is as above.
The target in experiment [3] is LFA-1 disulfide mutant #6 (αL Q1063C / β2 P677C) on 293T cells (UniProt P20701). The description is as above.
Experiment [4] addresses LFA-1 disulfide mutant #3 (αL K1062C / β2 G676C) on 293T cells (UniProt P20701). The experiment is described as above.
Experiment [5] addresses LFA-1 disulfide mutant #7 (αL M1064C / β2 P677C) on 293T cells (UniProt P20701). The experiment is described as above.
In experiment [6] the target is LFA-1 disulfide mutant #8 (αL Q1063C / β2 N678C) on 293T cells (UniProt P20701). The description is as above.
Experiment [7] concerns the target LFA-1 disulfide mutant #4 (αL Q1063C / β2 G676C) on 293T cells (UniProt P20701). The description is as above.
Experiment [8] deals with LFA-1 disulfide mutant #5 (αL K1062C / β2 P677C) on 293T cells (UniProt P20701). The experiment is described as above.
Experiment [9] has as its target wild-type LFA-1 (αLβ2) on 293T cells (UniProt P20701). Described as above.
The target is the same in experiment [10]. Nature of the experiment: flow cytometry (FACS), LFA-1 on transfected 293T cells; the reference itself. Background: In flow cytometry, cells or beads pass a laser one at a time.
In experiment [11] the target is LFA-1 disulfide mutant #2 (αL E1061C / β2 G676C) on 293T cells (UniProt P20701). Briefly: flow cytometry (FACS), LFA-1 on transfected 293T cells; reference wild-type LFA-1.
Experiment [12] addresses LFA-1 disulfide mutant #9 (αL M1064C / β2 N678C) on 293T cells (UniProt P20701). Described as above.
In experiment [13] the target is LFA-1 disulfide mutant #6 (αL Q1063C / β2 P677C) on 293T cells (UniProt P20701). The experiment is described as above.
For experiment [14], the target named is LFA-1 disulfide mutant #3 (αL K1062C / β2 G676C) on 293T cells (UniProt P20701). The experiment is described as above.
Experiment [15] addresses LFA-1 disulfide mutant #7 (αL M1064C / β2 P677C) on 293T cells (UniProt P20701). Described as above.
Experiment [16] concerns the target LFA-1 disulfide mutant #8 (αL Q1063C / β2 N678C) on 293T cells (UniProt P20701). The description is as above.
Experiment [17] concerns the target LFA-1 disulfide mutant #4 (αL Q1063C / β2 G676C) on 293T cells (UniProt P20701). The experiment is described as above.
For experiment [18], the target named is LFA-1 disulfide mutant #5 (αL K1062C / β2 P677C) on 293T cells (UniProt P20701). The experiment is described as above.

Several values for one entry are separate records, joined by “and”; a condition that tells them apart may be missing. Equal entries are not always repeated.

wild-type LFA-1 (αLβ2) on 293T cells, sequence (P20701 26-1170 limits assumed, chain 1 of 2): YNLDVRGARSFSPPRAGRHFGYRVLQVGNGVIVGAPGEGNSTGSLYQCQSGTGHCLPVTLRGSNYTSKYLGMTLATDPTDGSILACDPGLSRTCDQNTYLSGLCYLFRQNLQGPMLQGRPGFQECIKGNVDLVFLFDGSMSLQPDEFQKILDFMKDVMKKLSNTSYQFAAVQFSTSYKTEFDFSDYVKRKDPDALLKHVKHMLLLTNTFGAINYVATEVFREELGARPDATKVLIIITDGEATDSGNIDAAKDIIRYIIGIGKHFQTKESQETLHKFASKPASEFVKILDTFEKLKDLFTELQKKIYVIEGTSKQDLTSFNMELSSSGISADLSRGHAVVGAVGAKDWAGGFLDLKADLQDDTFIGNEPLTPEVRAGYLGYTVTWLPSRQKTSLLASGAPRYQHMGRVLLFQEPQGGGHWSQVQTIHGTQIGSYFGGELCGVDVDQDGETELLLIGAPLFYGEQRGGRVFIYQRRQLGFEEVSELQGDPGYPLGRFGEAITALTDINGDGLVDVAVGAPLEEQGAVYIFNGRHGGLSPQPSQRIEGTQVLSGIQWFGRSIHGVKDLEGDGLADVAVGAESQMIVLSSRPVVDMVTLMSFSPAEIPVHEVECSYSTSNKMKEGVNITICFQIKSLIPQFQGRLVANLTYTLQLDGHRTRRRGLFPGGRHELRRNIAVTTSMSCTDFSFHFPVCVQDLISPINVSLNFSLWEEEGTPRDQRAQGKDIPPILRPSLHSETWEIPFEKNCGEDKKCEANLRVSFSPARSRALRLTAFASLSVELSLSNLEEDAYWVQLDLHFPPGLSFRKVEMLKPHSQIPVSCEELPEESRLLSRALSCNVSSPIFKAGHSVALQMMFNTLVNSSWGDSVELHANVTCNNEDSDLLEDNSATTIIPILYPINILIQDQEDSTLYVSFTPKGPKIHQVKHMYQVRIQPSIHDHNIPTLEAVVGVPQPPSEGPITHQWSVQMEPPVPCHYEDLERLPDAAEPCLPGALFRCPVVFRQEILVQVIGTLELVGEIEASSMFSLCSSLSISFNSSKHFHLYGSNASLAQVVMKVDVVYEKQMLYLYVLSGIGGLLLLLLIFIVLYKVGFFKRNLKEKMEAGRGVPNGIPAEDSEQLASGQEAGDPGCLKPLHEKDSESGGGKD
wild-type LFA-1 (αLβ2) on 293T cells, sequence (P05107 23-769 limits assumed, chain 2 of 2, further chain): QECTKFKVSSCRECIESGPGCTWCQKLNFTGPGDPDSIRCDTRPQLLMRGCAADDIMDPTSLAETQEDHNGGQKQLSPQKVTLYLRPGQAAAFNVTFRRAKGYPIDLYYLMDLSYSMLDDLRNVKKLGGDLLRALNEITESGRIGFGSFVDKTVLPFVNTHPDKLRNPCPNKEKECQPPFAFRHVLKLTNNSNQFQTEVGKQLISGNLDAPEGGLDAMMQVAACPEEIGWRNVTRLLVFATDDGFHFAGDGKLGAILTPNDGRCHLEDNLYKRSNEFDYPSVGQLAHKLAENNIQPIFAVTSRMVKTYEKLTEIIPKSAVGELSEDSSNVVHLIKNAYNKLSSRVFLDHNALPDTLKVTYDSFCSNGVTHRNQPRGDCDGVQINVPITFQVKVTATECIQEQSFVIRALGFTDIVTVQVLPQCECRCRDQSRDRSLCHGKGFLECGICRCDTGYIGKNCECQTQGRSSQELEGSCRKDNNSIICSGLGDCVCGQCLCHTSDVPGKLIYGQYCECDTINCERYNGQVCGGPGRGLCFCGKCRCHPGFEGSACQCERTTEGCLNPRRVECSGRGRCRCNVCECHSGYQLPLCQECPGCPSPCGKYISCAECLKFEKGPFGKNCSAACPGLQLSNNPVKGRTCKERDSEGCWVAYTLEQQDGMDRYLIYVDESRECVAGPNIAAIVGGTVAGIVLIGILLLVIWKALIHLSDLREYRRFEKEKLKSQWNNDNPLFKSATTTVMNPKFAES
LFA-1 disulfide mutant #9 (αL M1064C / β2 N678C) on 293T cells, sequence (P20701 26-1170 M1089C, chain 1 of 2): as the sequence (P20701 26-1170 limits assumed, chain 1 of 2) above, with M1064C counted along it
LFA-1 disulfide mutant #9 (αL M1064C / β2 N678C) on 293T cells, sequence (P05107 23-769 N700C, chain 2 of 2, further chain): as the sequence (P05107 23-769 limits assumed, chain 2 of 2, further chain) above, with N678C counted along it
LFA-1 disulfide mutant #7 (αL M1064C / β2 P677C) on 293T cells, sequence (P20701 26-1170 M1089C, chain 1 of 2): as the sequence (P20701 26-1170 limits assumed, chain 1 of 2) above, with M1064C counted along it
LFA-1 disulfide mutant #7 (αL M1064C / β2 P677C) on 293T cells, sequence (P05107 23-769 P699C, chain 2 of 2, further chain): as the sequence (P05107 23-769 limits assumed, chain 2 of 2, further chain) above, with P677C counted along it
LFA-1 disulfide mutant #5 (αL K1062C / β2 P677C) on 293T cells, sequence (P20701 26-1170 K1087C, chain 1 of 2): as the sequence (P20701 26-1170 limits assumed, chain 1 of 2) above, with K1062C counted along it
LFA-1 disulfide mutant #5 (αL K1062C / β2 P677C) on 293T cells, sequence (P05107 23-769 P699C, chain 2 of 2, further chain): as the sequence (P05107 23-769 limits assumed, chain 2 of 2, further chain) above, with P677C counted along it
LFA-1 disulfide mutant #3 (αL K1062C / β2 G676C) on 293T cells, sequence (P20701 26-1170 K1087C, chain 1 of 2): as the sequence (P20701 26-1170 limits assumed, chain 1 of 2) above, with K1062C counted along it
LFA-1 disulfide mutant #3 (αL K1062C / β2 G676C) on 293T cells, sequence (P05107 23-769 G698C, chain 2 of 2, further chain): as the sequence (P05107 23-769 limits assumed, chain 2 of 2, further chain) above, with G676C counted along it
LFA-1 disulfide mutant #2 (αL E1061C / β2 G676C) on 293T cells, sequence (P20701 26-1170 E1086C, chain 1 of 2): as the sequence (P20701 26-1170 limits assumed, chain 1 of 2) above, with E1061C counted along it
LFA-1 disulfide mutant #2 (αL E1061C / β2 G676C) on 293T cells, sequence (P05107 23-769 G698C, chain 2 of 2, further chain): as the sequence (P05107 23-769 limits assumed, chain 2 of 2, further chain) above, with G676C counted along it
LFA-1 disulfide mutant #6 (αL Q1063C / β2 P677C) on 293T cells, sequence (P20701 26-1170 Q1088C, chain 1 of 2): as the sequence (P20701 26-1170 limits assumed, chain 1 of 2) above, with Q1063C counted along it
LFA-1 disulfide mutant #6 (αL Q1063C / β2 P677C) on 293T cells, sequence (P05107 23-769 P699C, chain 2 of 2, further chain): as the sequence (P05107 23-769 limits assumed, chain 2 of 2, further chain) above, with P677C counted along it
LFA-1 disulfide mutant #4 (αL Q1063C / β2 G676C) on 293T cells, sequence (P20701 26-1170 Q1088C, chain 1 of 2): as the sequence (P20701 26-1170 limits assumed, chain 1 of 2) above, with Q1063C counted along it
LFA-1 disulfide mutant #4 (αL Q1063C / β2 G676C) on 293T cells, sequence (P05107 23-769 G698C, chain 2 of 2, further chain): as the sequence (P05107 23-769 limits assumed, chain 2 of 2, further chain) above, with G676C counted along it
LFA-1 disulfide mutant #8 (αL Q1063C / β2 N678C) on 293T cells, sequence (P20701 26-1170 Q1088C, chain 1 of 2): as the sequence (P20701 26-1170 limits assumed, chain 1 of 2) above, with Q1063C counted along it
LFA-1 disulfide mutant #8 (αL Q1063C / β2 N678C) on 293T cells, sequence (P05107 23-769 N700C, chain 2 of 2, further chain): as the sequence (P05107 23-769 limits assumed, chain 2 of 2, further chain) above, with N678C counted along it

Take KIM127 (antibody): the Mean (FACS mean fluorescence) in experiment [1] was 8.27 and 9.59; in [2] it was 10 and 12.1; in experiment [3] it was 10.9 and 14.4; in experiment [4], 11.1 and 15.8; in experiment [5] it was 10.8 and 11.8; in experiment [6], 8.54 and 12.2. The Mean (FACS mean fluorescence) in experiment [7] is 12.1 and 12.2; in experiment [8], 10.3 and 9.36; in [9], 12.2 and 13.9. The Mean value normalized with expression level (MHM24) was 0.016 and 0.044 in experiment [1]; 0.023 and 0.047 in experiment [2]; 0.037 and 0.08 in [3]; 0.039 and 0.093 in [4]; 0.033 and 0.053 in experiment [5]; 0.06 and 0.074 in experiment [7]. In addition, the Mean value normalized with expression level (MHM24) in experiment [8] is 0.036 and 0.04; in experiment [9], 0.035 and 0.055. Besides, the normalized mean relative to wild-type (WT is set to 1.0) in experiment [10] is 1; in experiment [11] it was 0.46 and 0.81; in [12], 0.66 and 0.85; in experiment [13], 1.06 and 1.47; in experiment [14] it was 1.12 and 1.69; in experiment [15] it was 0.95 and 0.96. The normalized mean relative to wild-type (WT is set to 1.0) is 0.61 and 1.49 in experiment [16]; 1.69 and 1.35 in experiment [17]; 1.03 and 0.73 in [18].

For the substance MHM24 (antibody), the Mean (FACS mean fluorescence) turned out to be 97.4 in [1]; 147 in experiment [2]; 117 in experiment [3]; 117 in experiment [4]; 126 in experiment [5]; 88.5 in experiment [6]. Besides, the figures for the Mean (FACS mean fluorescence) in experiment [7] and in experiment [8] were 95.9 and 102, respectively.

As for X63 (antibody), the figures for the Mean (FACS mean fluorescence) in [2] and in experiment [9] were 4.06 and 5.96, respectively.

Take m24 (antibody): the Mean (FACS mean fluorescence) in experiment [1] was 35.8; in experiment [2] it was 57.1; in experiment [3], 52.3; in experiment [4], 57.4; in experiment [5] it was 53; in experiment [6], 38.6. Further, the Mean (FACS mean fluorescence) in experiment [7] came out at 47.8; in experiment [8], 43.5; in experiment [9] it was 66.3. Also, the Mean value normalized with expression level (MHM24) in experiment [1] stood at 0.33; in experiment [2], 0.36; in experiment [3], 0.42; in experiment [4], 0.46; in experiment [5], 0.39; in experiment [6], 0.4. The figures for the Mean value normalized with expression level (MHM24) in experiment [7], in experiment [8] and in experiment [9] were 0.46, 0.39 and 0.39, respectively. The normalized mean relative to wild-type (WT is set to 1.0) in [10] stood at 1; in [11] it was 0.83; in experiment [12], 0.92; in experiment [13], 1.06; in experiment [14], 1.17; in [15] it was 0.99. The normalized mean relative to wild-type (WT is set to 1.0) in experiment [16] amounted to 1; in [17] it was 1.18; in experiment [18] it was 0.99.
